Reference: the supplement of paper PMC10567573
± gives the standard deviation.

Experiment: protein stability index of a GFP-peptide fusion (GPS, HEK-293T) (PSI 1-6); higher = more stable
Settings: c terminus: a fixed tail appended
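Further: 24-mer peptide tiles fused after GFP, lentivirally expressed, FACS-sorted into six equal bins by GFP/DsRed ratio, decoded by Illumina sequencing, PSI is the read-weighted mean bin number.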

Sequence | protein stability index (treatment: DMSO) | protein stability index (treatment: MLN4924 1 uM, 8 h)
ARIQTLEPDNWMKEVMLFGHGTRK [RSAD1] | 3 ± 0.5 | 3.33 ± 0.35
PVYRRDCHEEVYAGSHQYPGRGVY [ACBD3] | 2.89 ± 0.29 | 3.03 ± 0.2
DANLDECIPATVRSSFANQGEICL [ALDH8A1] | 4.08 ± 0.35 | 4.19 ± 0.41
SVGTYIIDLLTFLTGQKAVKVHGL [GFOD1] | 3.23 ± 0.42 | 3.32 ± 0.54
EAQTSGKERLLLSAAVPAGQTYVD [CHIT1] | 4.15 ± 0.41 | 4.3 ± 0.26
EYHQPQAPANVAKIQLRLAGQKRK [LOXL2] | 4.34 ± 0.43 | 4.54 ± 0.4
ERKGWLAPSPGVKEQAIWKHPQPA [PKD2L1] | 3.52 ± 0.21 | 3.73 ± 0.41
KWMLGAEDLTPEDDMPIGRNVLEL [PTPRD] | 3.9 ± 0.12 | 3.92 ± 0.44
QQENKVLKIELETYKLKCKALQEE [CCDC6] | 4.28 ± 0.12 | 4.27 ± 0.14
VLGGNLQGGELVVAYPYDLVRSPW [CPXM2] | 2.13 ± 0.12 | 2.48 ± 0.48
FTFPGMSLDKRQGEGLRIYWGSPE [TPRG1] | 2.25 ± 0.35 | 2.38 ± 0.53
ILNFNDLMSSAVPMTPEDPSFWDC [AASDHPPT] | 2.71 ± 0.31 | 2.92 ± 0.2
KVEQNSRPVSCSGRDALLDQIRQG [WASL] | 4 ± 0.16 | 3.96 ± 0.081
TQLFIGGVTGWCTGFIFQKVGKLA [FUNDC2] | 2.33 ± 0.39 | 2.32 ± 0.28
EYAWCLVRSKYNDDIRKGIVLLEE [FIS1] | 2.13 ± 0.43 | 2.03 ± 0.26
RPENRSFYLALYKQMSFLEKRGCP [TCF25] | 2.12 ± 0.3 | 2.19 ± 0.34
FVTGNCLEISPDCSQYDRVYCGAG [PCMTD2] | 2.43 ± 0.19 | 2.33 ± 0.14
SPEVLTPQLSPGSGTPQAGTPSPS [RTN2] | 5.39 ± 0.31 | 5.45 ± 0.2

Sequence | protein stability index (treatment: DMSO) | protein stability index (treatment: MLN4924 1 uM, 8 h)
KGDSTIRELKAKLSGVEEELQRTK [SASS6] | 4.86 ± 0.32 | 4.58 ± 0.21
SPSEKNSSFTWSVPSSGYGAVTAS [SMTNL2] | 3.65 ± 0.18 | 3.74 ± 0.073
FLVTMANIGINGNHSLETCETTLF [PTGFR] | 2.88 ± 0.88 | 2.5 ± 1.1
RELTGLKALYETELADARRALDDT [LMNB1] | 4.76 ± 0.31 | 4.77 ± 0.094
RKADFKAGKALVISGREVFEFRPE [ZC3H15] | 3.11 ± 0.25 | 3.38 ± 0.41
DYPYSPPTFRFLTKMWHPNIYENG [UBE2R2] | 2.21 ± 0.41 | 2.3 ± 0.13
DATQEYKEKLQKCLEPLEQKLQEI [TRIM39] | 4.8 ± 0.055 | 5.02 ± 0.18
FHLGLEDILMEEEEGVVGGLSGGA [TFE3] | 3.75 ± 0.46 | 4.3 ± 0.46
PSLFHLNTLKRENSSPRVMQRKQS [DLC1] | 3.92 ± 0.16 | 4.2 ± 0.15
GAKMTERGSVARPTQGPETPRSPE [PXN] | 5.59 ± 0.13 | 5.38 ± 0.26
PEGIQKVAKCLIGVNYPKPMVNHA [CRY1] | 2.46 ± 0.18 | 2.87 ± 0.23
EDEGVDLSEGSSNEDEDLGPCEGP [SPANXN3] | 5.39 ± 0.44 | 5.41 ± 0.23
TMRYINGLDPEPLPLMDLCRRSIR [SPSB4] | 3.31 ± 0.36 | 3.42 ± 0.3
GCQVSPEGYAHLTHLLMGLASGRI [HDAC6] | 2.46 ± 0.89 | 2.57 ± 0.53
QDTEVFSWSDNERSSSRINIPERA [FAM104B] | 4.62 ± 0.094 | 4.53 ± 0.067
KGYLFHTVAGKHQDLKYISPEIMA [CDC25A] | 2.32 ± 0.34 | 2.43 ± 0.23
LPLPPPPPEPLSQVSMWDQRWQDH [APBB1IP] | 3.19 ± 0.78 | 3.54 ± 0.57
